Test: soluble fraction after stress (log2 fold change); higher = more stays soluble; pooled small domains, quantitative proteomics
Details: stress: pH 4
How it was run: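 How much of each domain stays soluble after acid stress, expressed as a fold change, is used to gauge aggregation propensity. Pooled custom libraries of small domains underwent pH 4 stress before high-throughput quantitative proteomics. A higher log2 value means more of the domain stayed soluble.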

## HMRDPLNTGFRQTLKDIVNSLPKNELYSPGVREEYIYPKIGVTSLGMEASMVLNGLISSRRKNIELKEKN
  soluble fraction (log2): 0.179

## HMRDPVDKDNYLGDWDKNKTYPAGYVMTFGDKNYLALQEVPAGTKPGATDPDPFWVLDTGKTLKD
  soluble fraction (log2): 0.163

## HMRDQARQFFIDTWAKFQRHDALTPLEEKTAAIIALHPEYHRVLQNPESFITTDWRPESGDINPFMHL
  soluble fraction (log2): -0.803

## HMRDSYEVEGRIASVSPAAGTFVVAGVTVDYTGARFVGGTVAQLAPGVKVEVEGRRLANGTLQAREIEFD
  soluble fraction (log2): -0.12

## HMRDSYTFEDIEKLKDSYLQDSEKALEKLISIYEDTNQSLAIRTAALDIITDSQDPTFKLALEKIIS
  soluble fraction (log2): -0.751

## HMRDTAKTLLAMEVVGENNKKNLQAFGIQKGDQNYQTAVVVRLMQKALMEGDTSAIRLIGELTGD
  soluble fraction (log2): -0.44

## HMRDTLSKQLLTEEMVLQFIREMREHDPGIGGEKLHAMYLGRFGRDYEYMVGRDKMEMIIAENNLNVR
  soluble fraction (log2): -1.05

## HMRDYDFGNLLYKLRIESGYTQKDIADMLGVTDKAVSKWENGIAKPTTNNIKLLSTIYNVSVEELLNG
  soluble fraction (log2): -0.754

## HMRDYKTALQEWVQRTPGQPIAYRLVDELGPDHARVFVMEVTVGGQSAGQGRGRTKKEAEQLAARAALEKL
  soluble fraction (log2): -0.0915

## HMREEIESVYKTLAVTEIPYIARGNSARLGSGIQTVYDFYRMEGMQVSKILGRNGSVLWLELHG
  soluble fraction (log2): -0.159

## HMREEMYGLIGFITTSEVTDTFGQMEIKLENEPEMRINVRTNPGESLARGDAAKIISFNNSNGTFLVELTK
  soluble fraction (log2): -0.564

## HMREFQVMKQELQEMVHQRLDMSTELSDEAIGDVIDEVIMEKSRNMYISSVTKLTLRQELFNAIR
  soluble fraction (log2): -2.14

## HMREGRERRLSQLLSYLRTHHILTRSEYVKLTGLSPTAASSELKTFVTAGHIVRKGIASHSTYRLPH
  soluble fraction (log2): 0.00826

## HMREKLKEYVHLLFAGTVGKEDMEQEILQNTLDRFDDWVARGFSEEDAYRKAVSGIGDIDALLG
  soluble fraction (log2): -2.07

## HMREPDPELTASIKSMAESNDQSERLVALAQLSEQRAVDPEVADQILLIALLDEDPIIRGQAVYA
  soluble fraction (log2): 0.0401

## HMRERLPFGFAQSKKVVLLSTESDTPKVLSVNWPSLDLYAELKRVIGRAFLLEIVSEEEFQAQVSDAYQRD
  soluble fraction (log2): -1.48

## HMREVGVPNLRGLTAEEAQIVLSNAGLNLRTEPIRRVHETITVGRIAEQDPMPDLTIRSQRSVTTWLSSGP
  soluble fraction (log2): -0.268

## HMREVTVGSAVRLKKGAKTYSGGSLASFVYERNHQVTQLSGDRAVISFKGTVVAAVHKDDLIL
  soluble fraction (log2): -0.0626

## HMREVVLNRIGSVAVQRATTRTWEEWVVTLDAEGMRGKEHRDVVGHLLRAHELTSWWAQMVSVGYEQSRGQ
  soluble fraction (log2): -0.155

## HMREYRITAEEGHPRIDVFLAGRPEIGLSRSRIQALIDEGQVTLNGAMPKARQAVNPGDVIVVRVPDPE
  soluble fraction (log2): -0.336

## HMRFEWFDTLTDREKEIFGLIATGFDNQQIADRLQLAEQTVRNNISTIYSKLEVKDRFEIIRLANTI
  soluble fraction (log2): -1.29

## HMRFKPLAEILAAVQTRYAGRVLDVELDRDQAGRNVYEVKLLAADGSRREIHIDAVTGKEVSL
  soluble fraction (log2): 0.178

## HMRGAIKMAEEQMAGHKKIGSISGTAPTQGELEKKFAMAAAQMGARYYVITGLSNNNYAFGNADIY
  soluble fraction (log2): -0.194

## HMRGDEDTGVWPTPMKRAYIDSLLKGYPTGVTMIVKPPGASHTTKWMILDGANRARALRDFMNDEFMI
  soluble fraction (log2): -0.155

## HMRGFTDFEHIEKEYLATIEKLNWPDGVTLPDKLEGEDTGTSFQVGYGDTRASNLWEYSWMK
  soluble fraction (log2): -1.15

## HMRGIPEEVADVAIQWVARLDSNEISDADRAAFFAWLDASPINRWAYNDISESWAKLSILNEMGH
  soluble fraction (log2): -1.8

## HMRGLFTVYMVGEKASRVGELDEEMVYESRIGDVFALGATSWRIEEITHDRVLVSPAYGQPGRLPFWH
  soluble fraction (log2): -1.72

## HMRGLGDLEPVDSLGKIRIDDGHMVLAFGRHKGRHLSEVQAEDPRYIHWLLSPKGIEDVEAREKVKVYLEG
  soluble fraction (log2): -0.136

## HMRGLLSQREHDVLDLVARGFSYGEIARLRSISVSTVQTHIKNLYRKLAVSSRTEAVYEAKQMGI
  soluble fraction (log2): -0.755

## HMRGLVPEIVGTLEGEIRAGTLAVGQKLPTEAEIMARFDVSRTVVREALSRLQASDLVETRHGIGTFVSAR
  soluble fraction (log2): 0.163

## HMRGPDLSKDFHEYISSQWMFFGRNAYQIAEQINKDTQLMSKYGKTTPSGVHYHIKQIQQEMEN
  soluble fraction (log2): -0.984

## HMRGPPQVLVDVELEDGRVGQIGVRNGDDATELAETFVRAFRLEQSFVGRLANVIQGKIRELLHSQ
  soluble fraction (log2): -1.17

## HMRGSRIFSGDVSPLTLPANSPFFSGYTEFKPGDVYVERSATNIAMWEWKSQPGGYTWVKTADIA
  soluble fraction (log2): 0.22

## HMRGYGDRIRILRERAGITIEQLAERLGVAPYFIRRTELSEVYPTKPYIEALADVLNIDASYLARHI
  soluble fraction (log2): -0.972

## HMRHYVLKENNGVIAIYKVNQENEAVFKENTQIQVQYLPEVDLINLKKGIYAIGEEKLNSILEDF
  soluble fraction (log2): -0.892

## HMRIDSFEDARRRFEYDYLTRLLKLTQGSVTQAAKLAKRNRTEFYKLLQRHGIEAAHFKPTS
  soluble fraction (log2): ≥ 0.43

## HMRIDVWLAENGFAPSRQKAQDLIAAGRVFQTDPSGRRQKVSKASAAVDPALSPKIEVIPDPE
  soluble fraction (log2): 0.068

## HMRILGIDPGYAITGYSIIDYVGNKFKLIDSGAVLTKAGVSFPLRLTKIYDDLSMIIDEYKPDA
  soluble fraction (log2): -0.42

## HMRIPANIAEDIKKLQKKEHHLHHHLGRDPFDDELAKELEWDTEQVSEIRQMIKNPELLEELLEAEREEE
  soluble fraction (log2): -1.2

## HMRITEQRRTLAKLFADTPGYLSPKDVYDYMGRFYPGLSFDTVYRNLRLLDELGVLEQVVFEDGVKFK
  soluble fraction (log2): -0.677

## HMRIWTISDLYKNVEDKKVSLAVFSEDNDSNKVNVLDINGEEHSVNLLKADLPTLVDLFRKNDVRFAVRSN
  soluble fraction (log2): 0.259

## HMRIWTPEMIKEYIISSNGKEPLNSHYYSTNHPSIYAAAERIFGSWGNAINAAGLDYNAIRKYK
  soluble fraction (log2): -0.0687

## HMRIYFSPSEIGFYHESDKQAYLLAGTWPNDLLEISEKWFLYLLEGQQKGKVITVNDYDQPVLVD
  soluble fraction (log2): -2.28

## HMRIYTKDEYLAELSRYLHKLPQDDYESAMAYFREYFEEAGPENEAQAMRDLGTPKEAASEILQNLLH
  soluble fraction (log2): -0.162

## HMRKDYTVLYSAVNAEEATEIVSKLQESGVAYQYKDNGDVLVDKKQVDKVRAQLAQEGYPKS
  soluble fraction (log2): -0.204

## HMRKIEDVLRLHAQGMSTRRIALATGVGKTTVIEYLRRAAVAGLSWPLPEGLDEEALERRVFPPPP
  soluble fraction (log2): 0.282

## HMRKIFPFNPNFITDQRGYFLGMSTSEIDRLHHFRAANKWIQSAQEFQVVTKVSNAWLSEFSPYFNFP
  soluble fraction (log2): 0.298

## HMRKKTYEIITDDLRRMIEAGLIRPGEKLGAIDQLAAKYRVGRSTVREALSHLKALGLVESRQGGGTYVTK
  soluble fraction (log2): 0.109

## HMRKNVAGITPNVYGMGLKDAVYLLENAGYRVKVNGRGNVVRQSINSGTRIIKGQLIILDLD
  soluble fraction (log2): 0.0848

## HMRKSNADALDGKTGIVKEEIKTGGYGYVGIDGDMWRSISESGEAIPAGTKVVVISHESIILTVKPA
  soluble fraction (log2): ≥ 0.43

## HMRKTLASTAYDSIKAGIVSGEINNNLLLSENTLAKILNMSRTPIREAIKRLEAESYLKSVDGVGLIVQE
  soluble fraction (log2): -0.314

## HMRKTLSQEAYEKIKQNLEDGVYQGYINGRQVARDLDIGFTPVREAFLQLQSEGLIRKEDNVGYFV
  soluble fraction (log2): -0.183

## HMRKTYHVDAYQDDKWWVLQVQEMPNAISQVKSLDQADEWIREAINIVSNEPEDSFDVVIIPV
  soluble fraction (log2): -1.54

## HMRKVTDTHELSSVVKSVIDQWEEKAAEYRAGKSGLLGFFVGEVMKKTGGAADPEAAKSLLQDRLD
  soluble fraction (log2): -0.285

## HMRKYEAVPASVVPAQIQEYVAKSNFPNQYIRKIERNKYTWEIELSNGLEIKFDRQFNVIGFD
  soluble fraction (log2): 0.338

## HMRLGQLQSVEEPKFIEVHSGKQGDIGEQTIVEYEIDAKYATGDATINLKLLFRDGLFEIYNFNFSSEALL
  soluble fraction (log2): -0.259

## HMRLNIRTKNNYSYYTIIKDYTNLNGKRTTTIFEKLGNQQQVEERFGKVNTIENIKKYIEELNNE
  soluble fraction (log2): 0.22

## HMRLPAISYSFARKHGVVLRLDGDRPVASLREGADPAILIEVKRHLDGAMGVEKVSEAAFDQLLSTTYA
  soluble fraction (log2): -0.436

## HMRLPNGYGSITKLSGKRRKPFMVRITTGYDNEGKQLMSVLGYYATRTEALAVLAEYNKNPYNPI
  soluble fraction (log2): 0.109

## HMRLPNHYGSVVKLSGKRRRPFMVRGGVYGYDDRGYPQYVIVGYTETREQGLTMLAEYNRNP
  soluble fraction (log2): -0.319

## HMRLPVELTDREVEVLRLLAQAMSNGEIARELYIGEATVKTHVSNVLQKLGARDRVAAVVWAHRYGL
  soluble fraction (log2): -1.16

## HMRLSAADLQSYLKGMDYPASRQDLIAHARGHNAPEEAVATLEQFSDRTYRSAADVSVEFGRE
  soluble fraction (log2): 0.309

## HMRLSPTMVETLIAMLNRNAYPAYENNSRTFASLEERGLIQPDIEGNWSLTDTGHQTALKLLK
  soluble fraction (log2): 0.0279

## HMRLSVRQRMSDVLGALKTQAFVEFTQLFRPQEGRMGVTVTFSAILELLREGLIEIVQSEPFAPIHVRAGA
  soluble fraction (log2): 0.22

## HMRMDKHLWLSLLRLINEGSAEELQTKKDELLQSLERLRITRGPVRGDVLRVVRLIDEELVSRLHLDQR
  soluble fraction (log2): -0.697

## HMRMTKPLPFDLAAFRNEFGFTKSIIMQEVGVSRHIYDNVERTNATPPEFYDDFVSFFQRHGQ
  soluble fraction (log2): -0.203

## HMRMTPRQALDDLIREREETYAAVSRLLGRNTAYIQQYIKRGTPARLDQSDIAQLALHFDVPAKLLGGKE
  soluble fraction (log2): ≥ 0.43

## HMRMTTEQLMSFLKQHFPQVADNFTVRISDEGRLSVEMPVNDKHLRPGGTVSGPSMFALADVAFYLAILQ
  soluble fraction (log2): -0.349

## HMRNERDRQLYAAMEKLKAEYREALYLVYFENMSYRDAAAVMAQTEKQISNLVYRGKQSLKTILEQEGF
  soluble fraction (log2): -0.867

## HMRNGGHTVYRNNGSLFIVVRDGDKLESVASEFRVSPKKLIKYNDLDIHSNVKTGDMIYIRPKA
  soluble fraction (log2): -0.124

## HMRNLYEILGVSKDAPQGEIKSAYRKLAKTYHPDLNPNNEKAAELFKEINQAYEVLSDETKRRHYDQFGEA
  soluble fraction (log2): ≥ 0.43

## HMRNMTDYLTIVRAVYGGLSQRQAATTYHVSRNTVSLLIRHAKNQGWLTVEDLSRADAAAFSPA
  soluble fraction (log2): -0.0738

## HMRNMVSVLDHIEGIGPKRRQLLYEHYGELEKIKEASVEEMAGLDGMNRPAAEAVYNFFLAQRNL
  soluble fraction (log2): -0.308

## HMRNSSLQTDLELRAYVIDGLNHFWTPEEIAGRWSLAHPDRPVSFATIYRHIKRKLLPGIEPKTHLRRRGK
  soluble fraction (log2): ≥ 0.43

## HMRPEARAASLSDEERKIFDYLAANGEKTIDNISVAVKMSAADILKNITLMSAKGLVYMPSAGRYGVKGN
  soluble fraction (log2): 0.0795

## HMRPNREKDMADLEKLAPFLLQMLTNYAQMTGDEKPLNAFITRFGYAAQIRDIQDFFMGPWHPA
  soluble fraction (log2): -0.24

Reference: the domain aggregation screens of Martell et al. (2025)
